Publication PMC3460626

biological target: T1, LasR (Pseudomonas aeruginosa PA14?) (UniProt A0A0H2Z901); test: EMSA; details: LasR EMSA: 20 mM Tris-HCl pH 7.5, 50 mM KCl, 1 mM EDTA, 1 mM DTT, 100 ug/ml BSA, 10% glycerol, room temp 20 min, 1 pM each specific and nonspecific probe
T1 sequence: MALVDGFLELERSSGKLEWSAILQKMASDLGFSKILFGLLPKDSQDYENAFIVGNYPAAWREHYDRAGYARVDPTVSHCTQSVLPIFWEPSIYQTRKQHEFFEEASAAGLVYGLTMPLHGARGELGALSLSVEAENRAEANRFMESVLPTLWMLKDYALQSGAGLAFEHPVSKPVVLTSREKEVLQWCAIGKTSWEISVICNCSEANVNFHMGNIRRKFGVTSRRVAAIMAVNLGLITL

Row | Sequence | binding
1 | GTCCGAATTCCCGGGAAGCGCCCTGTGACGGACTTCGAATCCTTGCGTCGCGCTCCGTCCTCCGGATTGAGCGGCGCGCTGCGGCGGCCGCGCTCCGGCGCAGCGCCACTGCCAGATCTGGCAGTTGTCGCTGGCGGGGACGGAGGTTTTAGTAGCCGCACTTTTTTCCAGGGCCGGGCAGTGGATCCGGAC (double strand) [PA14_40310 promoter] | binds
2 | GTCCGAATTCCCGTGCTACCCCCGGCAGGCGTAGCCGCGGCAGCCTGCCTCGGCAAAAAGCCATCAGCCGGCGCGCTTCGACGCCCCTCATACCGCCCTTTCGCCAACTACCAATTCTCATAGTTGTGAGGGGAAATTTGTATCTTATTTTAAATACCCACGAAACATATAAAAACACACACAGCGAAACACTTCGGAAACCGGATCCGGAC (double strand) [PA14_48530 promoter] | binds
3 | GTCCGAATTCCTTCTGATGCCGGCGCGGGCGCCCGGCCGGTATGGCCGGCAAGCCCGTCGACGGCTGTCCAGCTACCAGATCCGGTAGCCCTGCCAGATTTCGCAGGCGACCAGATCTGGCAGGTTGTTGGGCTCCCGGTGCCATGCAACCTATTACGCCTCTCGCCCCCCACCCGTTCGCGCAGGATCCGGAC (double strand) [PA14_37745 promoter] | binds
4 | GTCCGAATTCGCAATGGCAGACCTTGCCGTTCAGCGACAGGCAGATCGACGCCGACCCGCAACTGCAACGGCTAAGCATTCGCGAATGATAAGCAATGCCTATCAGATCTGATGGGAAAAAAACTGACGGTTTTTCCGCGCTCGTTCGTCTTTAACCATAGAGGCGGCCCACAGCCGCCCGGTTCCAGGGAACACGTGCAGGATCCGGAC (double strand) [PA14_33830 promoter] | binds
5 | GTCCGAATTCGCGGCTGAATCCGGCTGGGCAGCTGGCGATCATATCGCCAGCCACCCTGCTGGCCCCCGGCGCAGAGCGGCGCGGCTATGCTCGTGCGCCCGGAACGGCCCTATCCGTTCTGGGAGCTACCCCCTCGCCACCCTCGACTAGCATGACCAGGGAGGCCCGCAGTGGACGCCCAGGGCTAGGAGCCGCAGGCGGATCCGGAC (double strand) [PA14_41500 promoter] | binds
6 | GTCCGAATTCGGCGGCCCTTTGCCTGCCTCTACCGGCTCACAGTGCGGGTGCCGACCGCTTTGCATTCCGCGACATCCATCAGGAGTGGGTAGCGAATCTGACCGGCCCGTCACATTTGGTAGGGACCTCAAACCGGCACCGAGGGCTAGGATCAGCCCGCTTCGAAATGAATCCGGTTCTGGAAAGGATCCGGAC (double strand) [PA14_53250 (cbpD) promoter] | binds
7 | GTCCGAATTCGTGGAGGATCGCGTCGCGCAGCTGGCGATAGAGCTGGCCGACCAGGTCGTGGCGGCCGTCGAGGATCAGTTGCAGTTCCATGGCGAAATTGGCTACCTGGTATTTCTGGTAATTGGCTCTTCGTGGAAGCCAAAGGCAGGCTTAGTGTTACCCCATGCCGCGCCGCTTTCCACTCTCGCGGCTGCCAATCAGCCGGATCCGGAC (double strand) [PA14_03490 promoter] | binds
8 | GTCCGAATTCTGGATCGTTTCGTCACAGGAAACGCTGGAGCGCCTATTCCAGAGCGCTTCGAACAATCGGTAAAAATAAAATCCAAATAATCAGACGCAGTTCAAAAACAACCAGAACAGATAGTTTTTCCGCCTTTCCCAACATGCTCCTCTCGCCTTGACTCGTTCGATGCAGCGGATCGCCCATGCGTATGTCCGGCATTGGATCCGGAC (double strand) [PA14_07430 promoter] | binds
9 | GTCCGAATTCTTGTTCTATATGTTCGAACTTGGCTTTGCTCGTTGTTTTAATTTTGCGGAATAACCTCTGGAACTATTCATATGAATTTTTGAAAGTTTGGTTTACCTGAGAGATTTATGAGTTGACCTTGTCACGATGGCAGGACTCATGGTTCGCAGGAGTCAACAAACCAGGATCCGGAC (double strand) [PA14_18800 promoter] | binds
10 | GTCCGGATCCAGTCGCACGGCGACTGCGCCGCCCCCATGGGCGCGGCGAGTCTCTCATCGGACTGAAGGGAGATTATTGGCGAGAGGACTGCGGCGGATAACCTGGCAGAACTGAACGTATCGTTGAATGGAATTCAACGATACCCAAGCCGGGCGGGAATCGCCCGGGCGAGGCCGCGTTCCCGGTGGCCCGCTCCTCGCCGCTAAGCTTGGAC (double strand) [PA14_33890 promoter] | binds more weakly
11 | GTCCGGATCCCGAGGCTCTCCAGAGGAATCCACTGTTGTCTGCCTTATTTTTTATAAATTGTTAACTACCTGTTTTGGTAGGGTTTTCCAAATGGCCATCAATGTCGTTATGATGGCTATAGCCAAGCCGTAAAGGGCATGGACGCAGACGCCTGACGTTTGGCTGAAAATCTTTCATTGGAATTCGGAC (double strand) [lrs2 promoter] | binds
12 | GTCCGGATCCGTCCGAACCCATGAGATGGCAAACCAATGACAACCCACTTTGCTCGGCAAATCGCCTCCCAGATCTCACAGTTCGAGGCGCTCGGCCTGGGCTCCACGGGGGCGACGGCATGCCTGGAAGCGAGCGGCCATCCATCGGGCCGATAGCGCTCCACCCCGTCTCGCCTGCCAGAATTCGGAC (double strand) [lrs1 promoter] | binds
13 | GTCCGGATCCGTCTACCGCAGGGCATTCCGGCGTTTGTCGCGATCAGGGCGGGGGCATGGTTGCAGAGACGGCGGAAGGCTTCACCTACCACAATTGGCAGAGTCGCGGCGGCGATGCTCCGCGCCGGGTTCAACCGGCTTCGCTGAGTTCGGCGACCACCACTCCGGGAAGGTCTTTCAGCAGTGCCGGGGACAGCAGGAATTCGGAC (double strand) [PA14_34870 promoter] | binds
14 | GTCCGGATCCGTTGAAGAGTGAAGCCTTTGGGGGAAGGGCCGCCGCGGCGGAATCCAATCCTTCATGTTGCCAGCTTTGGCAGAGGGATGGGGCCGGCGGCGGTTCGCCTTCCTATGTCAGTTTGTCGCAGCGGGCCGGCCCGCCGCGGTTCAGGACCTGTCGCTGGCGGCGATCTTCGCGAATTCGGAC (double strand) [PA14_23220 promoter] | no binding
15 | GTCCGGATCCTTCCGTGAAGTGTTTCAAATAGCCAGCATCCCTGGTCGCTGATGTGGATTGCATAAAACACAGAACGCTCGTACCGGCTCAACTACAAGATCTGGTAGGTGCCAGACAGGGTATGCGGGATTGCTAAGCTGATGCTTCCTGCAATGCCGGAGGTTGTAGCCAAGTTGTAATTTTATTCTTTCGGTACGCAGGAAAGAATTCGGAC (double strand) [PA14_09480 (phzA1) promoter] | binds
